# Assay results published in patent US20250011869A1, “TLR3 INHIBITORS FOR USE IN THE TREATMENT OF DISEASES ASSOCIATED WITH CARDIOVASCULAR CALCIFICATION” (priority 2021, published 2025).
# Molecular target: T1, human TLR3 ectodomain (huTLR3-ECD) (Homo sapiens, UniProt O15455)
# T1 construct: The human TLR3-ECD (27-700) was modified with an N-terminal gb67 leader and a C-terminal 6× poly histidine tag; gb67 (gp67) secretion leader (N); 6xHis (C); made in house; host or cells: Sf21 insect cells (baculovirus, pFastBac1, Bac-to-Bac)
# Assay: In vitro binding by co-immunoprecipitation
# Settings: purified TLR3 ectodomain and purified BGN
# Experimental: The human TLR3-ECD (27-700) was modified with an N-terminal gb67 leader and a C-terminal 6× poly histidine tag and the sequence was produced synthetically (Geneart) and cloned into a pFastBac1 vector. The virus was generated and amplified at large scale levels using a Sf21 insect cell-line (Bac-to-Bac®). One liter Sf21 cell culture was infected and harvested at 72 hours. The culture was centrifuged at 1000×g for 30 min and the supernatant was filtered through a 0.2 μm nitrocellulose membrane. The filtrate was loaded onto a 5 ml His Trap EXCEL column (GE, 17-3712-06) using a peristaltic pump. […] The protein fractions were analyzed by SDS-PAGE and TLR3 containing fractions were pooled and concentrated to a final volume of ˜500 μl using a spin concentrator (Vivaspin®20) with a 10 kDa molecular weight cut-off. […] TLR3 containing fractions were analyzed by SDS-PAGE and pooled and concentrated to 1 mg/ml. Protein concentration was estimated using a Nano Drop by measuring the absorbance at 280 nm (MW=[…], ε=61.9 mol^−1 cm^−1).
# The human BGN (38-368) was modified with an N-terminal Secrecon tag followed by a 6× poly histidine tag and a Strep-Tag II. […] The protein fractions were analyzed by SDS-PAGE and BGN containing fractions were pooled and concentrated to a final volume of ˜500 μl using a spin concentrator (Vivaspin®20) with a 10 kDa molecular weight cut-off. […]
molecule,measurement,value
"BGN: proteoglycan biglycan (BGN), a structural protein of the extracellular matrix (ECM) (protein) DEEASGAETTSGIPDLDSLPPTYSAMCPFGCHCHLRVVQCSDLGLKAVPKEISPDTTLLDLQNNDISELRKDDFKGLQHLYALVLVNNKISKIHEKAFSPLRKLQKLYISKNHLVEIPPNLPSSLVELRIHDNRIRKVPKGVFSGLRNMNCIEMGGNPLENSGFEPGAFDGLKLNYLRISEAKLTGIPKDLPETLNELHLDHNKIQAIELEDLLRYSKLYRLGLGHNQIRMIENGSLSFLPTLRELHLDNNKLSRVPAGLPDLKLLQVVYLHTNNITKVGVNDFCPVGFGVKRAYYNGISLFNNPVPYWEVQPATFRCVTDRLAIQFGNYKK",interaction with huTLR3-ECD by immunoprecipitation,confirmed this interaction
